Earlier results on 17 substances are cited in publication PMC10466379.

Test in all cases: not stated (values taken from the PKAD database; the article says PKAD values come mainly from NMR or IR titrations)
What all share (settings): not stated (the curated set excludes proteins with ligands, nucleic acids and structural metal ions)

The target of series [1] is Glu90 (UniProt position 172, YGRGLEYIYAD).
For series [2], the target named is Glu132 (UniProt position 214, KSEAQEKKEKL).
For series [3], the target named is Glu34 (UniProt position 116, GQPMTERLLLV).
Series [4] concerns the target Glu20 (UniProt position 102, IKAIDEDTVKL).
The target of series [5] is Glu72 (UniProt position 154, ENAKKEEVEFD).
Series [6] concerns the target Glu25 (UniProt position 107, GDTVKEMYKGQ).
Series [7] has as its target Glu37 (UniProt position 119, MTFRLELVDTP).
Series [8] deals with Glu38 (UniProt position 120, TFRLLEVDTPE).
The target of series [9] is Glu100 (UniProt position 182, DGKMVEEALVR).
Series [10] addresses Glu118 (UniProt position 200, YVYKPENTHEQ).
Series [11] addresses Glu41 (UniProt position 123, LLLVDEPETKH).
Series [12] concerns the target Glu62 (UniProt position 144, EASAFEKKMVE).
The target of series [13] is Glu23 (UniProt position 105, IDGDTEKLMYK).
The target in series [14] is Glu39 (UniProt position 121, FRLLLEDTPET).
Series [15] deals with Glu74 (UniProt position 156, AKKIEEEFDKG).
Series [16] addresses Glu99 (UniProt position 181, ADGKMENEALV).
For series [17], the target named is Glu91 (UniProt position 173, GRGLAEIYADG).

The pKa is the pH at which an ionisable group is half protonated. “staphylococcal nuclease variant A90E (parent PDB 2LKV) (Staphylococcus aureus (inferred from PDB 2LKV; not stated in the article); A90E)”: in series [1], the pKa is given as 6.4.

Regarding “staphylococcal nuclease variant A132E (parent PDB 2LKV) (Staphylococcus aureus (inferred from PDB 2LKV; not stated in the article); A132E)”, the pKa in series [2] is reported as 7.

Regarding “staphylococcal nuclease variant F34E (parent PDB 2LKV) (Staphylococcus aureus (inferred from PDB 2LKV; not stated in the article); F34E)”, the pKa in series [3] is 7.3.

Take “staphylococcal nuclease variant G20E (parent PDB 2LKV) (Staphylococcus aureus (inferred from PDB 2LKV; not stated in the article); G20E)”: in [4], the pKa is 4.5.

Take “staphylococcal nuclease variant I72E (parent PDB 2LKV) (Staphylococcus aureus (inferred from PDB 2LKV; not stated in the article); I72E)”: the pKa in series [5] is listed as 7.3.

“staphylococcal nuclease variant L25E (parent PDB 2LKV) (Staphylococcus aureus (inferred from PDB 2LKV; not stated in the article); L25E)”: the pKa in series [6] is reported as 7.5.

For “staphylococcal nuclease variant L37E (parent PDB 2LKV) (Staphylococcus aureus (inferred from PDB 2LKV; not stated in the article); L37E)”, the pKa in series [7] is given as 5.2.

As for “staphylococcal nuclease variant L38E (parent PDB 2LKV) (Staphylococcus aureus (inferred from PDB 2LKV; not stated in the article); L38E)”, the pKa in [8] is listed as 6.8.

Consider “staphylococcal nuclease variant N100E (parent PDB 2LKV) (Staphylococcus aureus (inferred from PDB 2LKV; not stated in the article); N100E)”, for which the pKa in series [9] was 7.6.

Take “staphylococcal nuclease variant N118E (parent PDB 2LKV) (Staphylococcus aureus (inferred from PDB 2LKV; not stated in the article); N118E)”: in series [10], the pKa was 4.5.

Regarding “staphylococcal nuclease variant T41E (parent PDB 2LKV) (Staphylococcus aureus (inferred from PDB 2LKV; not stated in the article); T41E)”, the pKa in [11] is 6.8.

Turning to “staphylococcal nuclease variant T62E (parent PDB 2LKV) (Staphylococcus aureus (inferred from PDB 2LKV; not stated in the article); T62E)”, the pKa in series [12] is on record as 7.7.

Regarding “staphylococcal nuclease variant V23E (parent PDB 2LKV) (Staphylococcus aureus (inferred from PDB 2LKV; not stated in the article); V23E)”, the pKa in series [13] was 7.1.

As for “staphylococcal nuclease variant V39E (parent PDB 2LKV) (Staphylococcus aureus (inferred from PDB 2LKV; not stated in the article); V39E)”, the pKa in series [14] is 8.2.

For “staphylococcal nuclease variant V74E (parent PDB 2LKV) (Staphylococcus aureus (inferred from PDB 2LKV; not stated in the article); V74E)”, the pKa in series [15] was 7.8.

As to “staphylococcal nuclease variant V99E (parent PDB 2LKV) (Staphylococcus aureus (inferred from PDB 2LKV; not stated in the article); V99E)”, the pKa in series [16] was 8.4.

Consider “staphylococcal nuclease variant Y91E (parent PDB 2LKV) (Staphylococcus aureus (inferred from PDB 2LKV; not stated in the article); Y91E)”, for which the pKa in series [17] is given as 7.1.
